{"source": "paper PMC9860250", "binders": {"B1": {"name": "U6_WT/U2_WT helix II (dsRNA)", "RNA 1": "UACAAAGAGAUUUAUUUCGUUUU", "RNA 2": "ACGAAUCUCUUUGCCUUUUGGCUUAGAU", "modifications": "3'-phosphate on U6"}}, "key": {"[1]": {"biological_target": "T1, Lsm2-8 heteroheptameric ring (UniProt P38203;P57743;P40070;P40089;Q06406;P53905;P47093 …)", "T1 sequence 1": "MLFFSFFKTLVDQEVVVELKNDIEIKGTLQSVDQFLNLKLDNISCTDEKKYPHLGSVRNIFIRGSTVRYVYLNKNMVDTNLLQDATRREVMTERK", "T1 sequence 2": "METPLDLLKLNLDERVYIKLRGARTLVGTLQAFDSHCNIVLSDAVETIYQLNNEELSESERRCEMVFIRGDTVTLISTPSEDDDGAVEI", "T1 sequence 3": "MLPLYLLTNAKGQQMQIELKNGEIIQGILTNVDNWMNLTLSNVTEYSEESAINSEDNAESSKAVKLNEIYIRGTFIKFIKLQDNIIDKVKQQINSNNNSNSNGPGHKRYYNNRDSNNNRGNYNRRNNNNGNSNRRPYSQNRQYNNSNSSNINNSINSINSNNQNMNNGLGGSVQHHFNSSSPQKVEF", "T1 sequence 4": "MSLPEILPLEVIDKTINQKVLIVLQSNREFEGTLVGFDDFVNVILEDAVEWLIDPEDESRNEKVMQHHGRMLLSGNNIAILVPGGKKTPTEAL", "T1 sequence 5": "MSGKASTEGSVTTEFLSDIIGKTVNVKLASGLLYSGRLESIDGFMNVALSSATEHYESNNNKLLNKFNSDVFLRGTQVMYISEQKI", "T1 sequence 6": "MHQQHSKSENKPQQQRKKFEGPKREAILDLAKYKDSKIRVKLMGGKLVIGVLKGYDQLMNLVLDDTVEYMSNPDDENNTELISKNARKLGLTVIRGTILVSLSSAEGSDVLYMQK", "T1 sequence 7": "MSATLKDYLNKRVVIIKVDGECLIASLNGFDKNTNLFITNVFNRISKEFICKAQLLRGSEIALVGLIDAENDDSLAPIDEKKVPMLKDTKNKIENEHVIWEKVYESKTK", "assay": "EMSA"}, "[2]": {"biological_target": "T1, Lsm2-8 heteroheptameric ring", "assay": "EMSA", "remark": "listed apart in the source"}}, "note": "Like-named read-outs stand apart in the source and are kept apart here."}
{"binder": "UACAAAGAGAUUUAUUUCGUUUU (ssRNA, 3'-phosphate)", "note": "[U6_WT]", "values": [{"measurement": "binding result", "setting": "[1]", "result": "binds"}]}
{"binder": "B1", "values": [{"measurement": "binding result", "setting": "[2]", "result": "binds"}]}
